# Test results taken from patent publication US20190083662A1 (CENTRE FOR PROBE DEVELOPMENT AND COMMERCIALIZATION, published 2019).
# Molecular target: T1, insulin-like growth factor-1 receptor (IGF-1R) (human, UniProt P08069 31-1367)
# T1 construct: whole, on cells; Endogenous receptor on A431 cells ('IGF-1R expressing A431 cell line'); also called IGF-1 receptor
# Assay: saturation radioligand binding on A431 cells, 4 C, specific binding fitted to a single-site hyperbola
# Description: Nonspecific binding is typically assessed by measuring radioconjugate binding in the presence of a fixed concentration of HumIGF-1R that binds to essentially all the receptors. Since all the receptors are occupied by the HumIGF-1R, the radioconjugate only binds nonspecifically. Kd and Bₘₐₓ values are calculated by nonlinear regression analysis and computerized curve fitting.
# The purpose of this assay was to ensure that these new radioconjugates maintained binding characteristics consistent with the native antibody in an IGF-1R expressing A431 cell line. Twenty-four hours prior to the start of the experiment, 1.5×10⁵ A431 cells were seeded in 48-well microplates in 500 μl supplemented medium. The radioconjugate was diluted with binding buffer (PBS+0.5% BSA) to a range of concentrations from 0.08 nM to 40 nM; final assay concentration 0.04 to 20 nM. At the start of the assay, the media is aspirated, discarded and 500 μI of serum-free DMEM was added to each well. The plates were incubated at 37° C. for 1 hour. Following incubation, media was aspirated from each well and discarded. The cells were washed and 100 μI of binding buffer (total binding) or 4 μM cold-antibody (non-specific binding) added to designated wells. Plates were incubated at 4° C. for 1 hour with mild shaking. […] The lysates were transferred to counting tubes and run with radioconjugate standards on the Wizard 1470 gamma counter to determine the radioactivity content (in counts per minute (CPM)) for each lysate. The remaining lysate from each well (25 μI) was transferred to a 96-well plate, and the protein content of each lysate determined using a standard protein quantification assay. Total, non-specific and specific ligand binding determinations, mass of bound conjugate in each lysate were calculated by converting lysate CPM to fmol bound using the specific activity of the conjugate standards and then normalizing the fmol bound to the protein content of each lysate(in milligrams). Specific binding was determined by subtracting the non-specific binding from total binding.
# T1 sequence (P08069 31-1367): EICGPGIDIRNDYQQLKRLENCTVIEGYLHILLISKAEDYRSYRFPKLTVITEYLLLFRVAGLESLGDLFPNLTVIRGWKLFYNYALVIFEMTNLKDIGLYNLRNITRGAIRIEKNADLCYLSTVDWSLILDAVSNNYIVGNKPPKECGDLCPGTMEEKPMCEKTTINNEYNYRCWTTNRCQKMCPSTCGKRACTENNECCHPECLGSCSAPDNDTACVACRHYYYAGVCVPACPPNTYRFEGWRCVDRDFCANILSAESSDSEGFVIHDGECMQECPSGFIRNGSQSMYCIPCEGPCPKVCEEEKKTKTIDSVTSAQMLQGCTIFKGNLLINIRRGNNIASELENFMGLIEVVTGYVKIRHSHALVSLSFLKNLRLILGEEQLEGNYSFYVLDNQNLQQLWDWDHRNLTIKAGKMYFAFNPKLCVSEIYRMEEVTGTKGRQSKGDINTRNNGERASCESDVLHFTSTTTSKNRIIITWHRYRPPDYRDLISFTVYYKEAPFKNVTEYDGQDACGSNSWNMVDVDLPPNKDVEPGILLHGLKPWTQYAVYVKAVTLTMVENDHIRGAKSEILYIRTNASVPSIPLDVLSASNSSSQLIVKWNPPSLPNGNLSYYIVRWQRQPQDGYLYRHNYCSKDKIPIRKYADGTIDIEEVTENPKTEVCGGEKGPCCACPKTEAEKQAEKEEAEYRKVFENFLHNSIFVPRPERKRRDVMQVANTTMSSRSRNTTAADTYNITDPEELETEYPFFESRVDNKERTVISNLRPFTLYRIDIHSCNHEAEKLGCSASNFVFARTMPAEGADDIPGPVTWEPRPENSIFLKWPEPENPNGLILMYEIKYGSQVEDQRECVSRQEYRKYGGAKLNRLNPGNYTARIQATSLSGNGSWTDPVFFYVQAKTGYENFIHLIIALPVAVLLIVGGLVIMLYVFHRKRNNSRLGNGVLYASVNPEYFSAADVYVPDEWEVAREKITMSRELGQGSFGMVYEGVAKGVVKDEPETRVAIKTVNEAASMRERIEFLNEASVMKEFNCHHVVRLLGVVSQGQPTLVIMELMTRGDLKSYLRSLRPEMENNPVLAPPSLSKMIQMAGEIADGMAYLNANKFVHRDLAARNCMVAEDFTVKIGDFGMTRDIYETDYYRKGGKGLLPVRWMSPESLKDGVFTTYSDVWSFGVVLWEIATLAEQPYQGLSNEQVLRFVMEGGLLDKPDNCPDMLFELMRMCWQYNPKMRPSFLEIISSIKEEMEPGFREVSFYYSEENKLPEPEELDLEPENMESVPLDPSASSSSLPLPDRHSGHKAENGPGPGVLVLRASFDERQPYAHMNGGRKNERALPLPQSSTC
row,Kd [nM],Binder
1,2.9,"[^177Lu]-Compound A-HuMIGF-1R (antibody, V domains shown, Whole antibody HuMIGF-1R (AVE1642, humanized EM164; MALDI m/z about 149835) conjugated with the chelate Compound A (DOTA-GA anhydride) and loaded with 177Lu; also called 177Lu-DOTA-GA-AVE1642; (Compound A)-HuMIGF-1R radiolabelled with Lu-177) VH: QVQLVQSGAEVVKPGASVKLSCKASGYTFTSYWMHWVKQRPGQGLEWIGEINPSNGRTNYNQKFQGKATLTVDKSSSTAYMQLSSLTSEDSAVYYFARGRPDYYGSSKWYFDVWGQGTTVTVSSASTKGPSVFPLAPSSKSTSGGTAALG VL: DVVMTQTPLSLPVSLGDPASISCRSSQSIVHSNVNTYLEWYLQKPGQSPRLLIYKVSNRFSGVPDRFSGSGAGTDFTLRISRVEAEDLGIYYCFQGSHVPPTFGGGTKLEIKRTVAAPSVFIFPPSDEQLKSGTASVVCLLNNFYPREAK"
2,2,"[^177Lu]-Compound B-HuMIGF-1R (antibody, V domains shown, Whole antibody HuMIGF-1R (AVE1642) conjugated with the chelate Compound B (DOTA-GA with an 11-aminoundecanoyl linker, TFP ester) and loaded with 177Lu; also called Compound B-HuMIGF-1R radiolabelled with Lu-177) VH: QVQLVQSGAEVVKPGASVKLSCKASGYTFTSYWMHWVKQRPGQGLEWIGEINPSNGRTNYNQKFQGKATLTVDKSSSTAYMQLSSLTSEDSAVYYFARGRPDYYGSSKWYFDVWGQGTTVTVSSASTKGPSVFPLAPSSKSTSGGTAALG VL: DVVMTQTPLSLPVSLGDPASISCRSSQSIVHSNVNTYLEWYLQKPGQSPRLLIYKVSNRFSGVPDRFSGSGAGTDFTLRISRVEAEDLGIYYCFQGSHVPPTFGGGTKLEIKRTVAAPSVFIFPPSDEQLKSGTASVVCLLNNFYPREAK"
3,2.2,"[^177Lu]-Compound C-HuMIGF-1R (antibody, V domains shown, Whole antibody HuMIGF-1R (AVE1642) conjugated with the chelate Compound C (DOTA-GA with a PEG3 linker, TFP ester) and loaded with 177Lu; also called Compound C-HuMIGF-1R radiolabelled with Lu-177) VH: QVQLVQSGAEVVKPGASVKLSCKASGYTFTSYWMHWVKQRPGQGLEWIGEINPSNGRTNYNQKFQGKATLTVDKSSSTAYMQLSSLTSEDSAVYYFARGRPDYYGSSKWYFDVWGQGTTVTVSSASTKGPSVFPLAPSSKSTSGGTAALG VL: DVVMTQTPLSLPVSLGDPASISCRSSQSIVHSNVNTYLEWYLQKPGQSPRLLIYKVSNRFSGVPDRFSGSGAGTDFTLRISRVEAEDLGIYYCFQGSHVPPTFGGGTKLEIKRTVAAPSVFIFPPSDEQLKSGTASVVCLLNNFYPREAK"
